Data published in article PMC3262814, “Purification and Activity Testing of the Full-Length YycFGHI Proteins of Staphylococcus aureus” (PLoS ONE, 2012).
Where “and” joins values, the source holds several entries; their conditions need not be identical. Equal entries are not always repeated.

Columns and labels:
[1] = target: YycI-C-His6 (Staphylococcus aureus SA137/93A); experiment: native gel or EMSA; blue native PAGE (BN-PAGE) of single proteins; 4-20% Tris-HCl gradient gel; 5 µg of YycF, YycH, YycI or 10 µg of YycG, YycG(Y306N) in 10 µl dialysis buffer I (50 mM NaH2PO4, 300 mM NaCl, 50% glycerol, pH 8) with Coomassie Brilliant Blue R250; 80 V, 4-7°C; masses calibrated with soluble markers and a conversion factor
[2] = target: the molecule itself; experiment: as above

Molecule | stoichiometry N [1] | stoichiometry N [2]
YycI-C-His6 (natural protein) | < 6 | –
YycG-C-His6 (enzyme, Staphylococcus aureus SA137/93A, two additional residues (Met-Gly) at the N-terminus, from the NcoI site placed in frame; Cloned NcoI/XhoI into pET22bΔpelB; also called WalK; VicK; source: E. coli C41(DE3) or C43(DE3) pREP4groESL(MT), purified from the membrane fraction (DDM, Ni-NTA); not shown: His6, C-terminal, kept) MGMKWLKQLQSLHTKLVIVYVLLIIIGMQIIGLYFTNNLEKELLDNFKKNITQYAKQLEISIEKVYDEKGSVNAQKDIQNLLSEYANRQEIGEIRFIDKDQIIIATTKQSNRSLINQKANDSSVQKALSLGQSNDHLILKDYGGGKDRVWVYNIPVKVDKKVIGNIYIESKINDVYNQLNNINQIFIVGTAISLLITVILGFFIARTITKPITDMRNQTVEMSRGNYTQRVKIYGNDEIGELALAFNNLSKRVQEAQANTESEKRRLDSVITHMSDGIIATDRRGRIRIVNDMALKMLGMAKEDIIGYYMLSVLSLEDEFKLEEIQENNDSFLLDLNEEEGLIARVNFSTIVQETGFVTGYIAVLHDVTEQQQVERERREFVANVSHELRTPLTSMNSYIEALEEGAWKDEELAPQFLSVTREETERMIRLVNDLLQLSKMDNESDQINKEIIDFNMFINKIINRHEMSAKDTTFIRDIPKKTIFTEFDPDKMTQVFDNVITNAMKYSRGDKRVEFHVKQNPLYNRMTIRIKDNGIGIPINKVDKIFDRFYRVDKARTRKMGGTGLGLAISKEIVEAHNGRIWANSVEGQGTSIFITLPCEVIEDGDWDE | – | 2 and 3 and 4
YycG(Y306N)-C-His6 (enzyme, two additional residues (Met-Gly) at the N-terminus, from the NcoI site placed in frame; YycG (WalK/VicK) sensor histidine kinase of Staphylococcus aureus with the exchange Y306N (nucleotide exchange T916A) in the cytoplasmic PAS domain; Cloned NcoI/XhoI into pET22bΔpelB; also called mutant kinase; mutated YycG kinase; source: E. coli C41(DE3) or C43(DE3) pREP4groESL(MT), purified from the …) MGMKWLKQLQSLHTKLVIVYVLLIIIGMQIIGLYFTNNLEKELLDNFKKNITQYAKQLEISIEKVYDEKGSVNAQKDIQNLLSEYANRQEIGEIRFIDKDQIIIATTKQSNRSLINQKANDSSVQKALSLGQSNDHLILKDYGGGKDRVWVYNIPVKVDKKVIGNIYIESKINDVYNQLNNINQIFIVGTAISLLITVILGFFIARTITKPITDMRNQTVEMSRGNYTQRVKIYGNDEIGELALAFNNLSKRVQEAQANTESEKRRLDSVITHMSDGIIATDRRGRIRIVNDMALKMLGMAKEDIIGNYMLSVLSLEDEFKLEEIQENNDSFLLDLNEEEGLIARVNFSTIVQETGFVTGYIAVLHDVTEQQQVERERREFVANVSHELRTPLTSMNSYIEALEEGAWKDEELAPQFLSVTREETERMIRLVNDLLQLSKMDNESDQINKEIIDFNMFINKIINRHEMSAKDTTFIRDIPKKTIFTEFDPDKMTQVFDNVITNAMKYSRGDKRVEFHVKQNPLYNRMTIRIKDNGIGIPINKVDKIFDRFYRVDKARTRKMGGTGLGLAISKEIVEAHNGRIWANSVEGQGTSIFITLPCEVIEDGDWDE | – | 2 and 3 and 4
